Assay results reported in patent US20150064179A1 (BIOTEST, published 2015).
Residue numbers refer to the chain shown, from its start. One block for each binder: values may come before it.

How the values were obtained:
[1] = molecular target: T1, human interleukin 10 (R&D Systems, Cat. No. 217-IL/CF) (human, UniProt P22301 19-178); assay: antigen ELISA on plate-coated hIL-10 (2 µg/ml), COS-7 supernatants adjusted to the same antibody concentration; one concentration, not given
T1 construct: also called hIL-10; human IL-10
Text: In brief, the expression vectors coding for the light chain and for the heavy chain were transiently cotransfected into COS-7 cells by calcium phosphate precipitation in DMEM containing 10% FCS in a 24-well format. After transfection the medium was replaced by the serum free medium CHO-S-SFM II (Invitrogen, Germany) and the supernatants of the COS-7 cells were collected 2-3 days after transfection. The antibody titer of the humanized antibodies secreted into the supernatants of transfected COS-7 cells were analyzed by a sandwich ELISA. Based on the determined antibody concentrations supernatants of all samples were adjusted to the same antibody concentrations, and all samples were used to analyze binding to human IL-10 in an antigen ELISA, whereby Maxisorb plates (Nunc, Germany) were coated with 2 μg/ml hIL-10 in PBS.

[2] = molecular target: T1, human interleukin 10 (R&D Systems, Cat. …); assay: SPR Biacore 2000, hIL-10 immobilised on CM-5 chip
Procedure: (§1) Surface plasmon resonance analysis was used to measure the association and dissociation rate constants for binding of the different antibodies (murine, chimeric, 3 humanized variants) towards hIL-10 using BIACORE 2000 (Biacore AB, Uppsala, Sweden). hIL-10 was immobilized on a CM-5 sensor chip according to manufacturers conditions. hIL-10 was immobilized by adding a 50 μl aliquot of 20 μg/ml at a flow rate of 5 μl/minute resulting in an immobilization density of 320RU. The immobilized hIL-10 surface was regenerated in a two step cycle by using 0.1M carbonate buffer pH 9.2 and 0.01M HCL/1M NaCl at flow rates of 50 μl/minute for one minute each. Each antibody sample was analyzed at least 4 times in antibody concentration ranges of 20-0.15 μg/ml. Calculations from the sensograms were performed by using the BIA evaluation version 3 (1999) software.
However, slight differences are detectable. […] Slight differences in association and dissociation rates are also detectable.

[3] = molecular target: T1, human interleukin 10 (R&D Systems, Cat. …); assay: SPR Biacore 2000, hIL-10 immobilised on CM-5 chip, antibody as analyte, n=4
Procedure: as §1

[4] = molecular target: T1, human interleukin 10 (R&D Systems, Cat. …); assay: SPR Biacore 2000, hIL-10 immobilised on CM-5 chip, antibody as analyte, n=6
Procedure: as §1

[5] = molecular target: T1, human interleukin 10 (R&D Systems, Cat. …); assay: SPR Biacore 2000, hIL-10 immobilised on CM-5 chip, antibody as analyte, n=5
Procedure: as §1

[6] = molecular target: T2, recombinant Cynomolgus IL-10 (Cynomolgus, UniProt P79338 19-178); assay: SPR Biacore T100, BT-063 immobilised by amine coupling, rCIL-10 as analyte, assay no 1
T2 construct: also called rCIL-10
Procedure: (§2) The affinity of the BT-63 variant 3 (hVH26/hVL7) to Cynomolgus IL-10 was analysed by additional surface plasmon resonance experiments using a Biacore T100 (Biacore AB, Uppsala, Sweden).
(§3) BT-063 was diluted in 10 mM acetate pH5.5 to 5 μg/mL and immobilized using amine coupling procedure to obtain a final level of about 1000 RU. Regeneration of the sensor chip surface was obtained injecting 10 mM Glycine-HCl pH 1.8 for 30 s. Samples were injected in different concentrations over the flow cell as well as over the reference cell. Signals obtained by the reference cell were subtracted from the signals obtained by the detector flow cell and resulting binding profiles were evaluated using a 1:1 Langmuir-binding model.

[7] = molecular target: T2, recombinant Cynomolgus IL-10; assay: SPR Biacore T100, BT-063 immobilised by amine coupling, rCIL-10 as analyte, assay no 2
Procedure: as §2, §3

[8] = molecular target: T2, recombinant Cynomolgus IL-10; assay: SPR Biacore T100, BT-063 immobilised by amine coupling, rCIL-10 as analyte, assay no 3
Procedure: as §2, §3

[9] = molecular target: T1, human interleukin 10 (R&D Systems, Cat. …); assay: SPR Biacore T100, BT-063 immobilised by amine coupling, rhIL-10 as analyte, assay no 1
[10] = molecular target: T2, recombinant Cynomolgus IL-10; assay: SPR Biacore T100, BT-063 immobilised by amine coupling, IL-10 as analyte, 1:1 Langmuir model, average
Procedure: as §2, §3

T1 sequence (P22301 19-178): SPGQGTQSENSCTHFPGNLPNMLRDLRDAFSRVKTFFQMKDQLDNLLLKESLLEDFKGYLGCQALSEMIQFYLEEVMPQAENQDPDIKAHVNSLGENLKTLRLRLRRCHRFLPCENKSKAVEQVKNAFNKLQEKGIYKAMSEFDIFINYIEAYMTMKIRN
T2 sequence (P79338 19-178 limits assumed): as the sequence (P22301 19-178) above, with H14R, N21H, L46I, Q83H, A89E, N129S, I136V counted along it

B2: humanized antibody variant hVH18/hVL7 (antibody, V domains shown)
VH: EVQLVESGGGLVQPGGSLRLSCAASGFSFATYGVHWVRQSPGKGLEWLGVIWRGGSTDYSAAFMSRLTISKDNSKNTLYLQMNSLRAEDTAVYYCARQAYGHYMDYWGQGTLVTVSS
VL: DVVMTQSPLSLPVTLGQPASISCRSSQNIVHSNGNTYLEWYLQRPGQSPRLLIYKVSNRFSGVPDRFSGSGSGTDFTLKISRVEAEDVGVYYCFQGSHVPWTFGQGTKVEIK
notes: human constant kappa and gamma-1; tested as COS-7 supernatant
binding result [1]: binds

B4: BT-063-2 (hVH20/hVL8) (antibody, V domains shown)
VH: B2 VH with L78V, L80F, Y94F, R97K, L112S
VL: B2 VL with V3L, Y41F, L42Q, Q105G
notes: also called BT-063 variant hVH20/hVL8
factor of reduced affinity compared to the murine B-N10 [2]: ~3 fold
Kd [3]: 2810 pM
koff [3]: 0.00164 s⁻¹
kon [3]: 1.21e+06 M⁻¹ s⁻¹

B5: humanized antibody variant hVH1/hVL7 (antibody, V domains shown)
VH: B2 VH with S28T, A30S, S40A, L48V, G49S, L67F, K71R
VL: B2 VL
notes: as for B2
binding result [1]: binds

B6: humanized antibody variant hVH1/hVL8 (antibody, V domains shown)
VH: B2 VH with S28T, A30S, S40A, L48V, G49S, L67F, K71R
VL: B2 VL with V3L, Y41F, L42Q, Q105G
notes: as for B2
binding result [1]: binds

B7: humanized antibody variant hVH28/hVL7 (antibody, V domains shown)
VH: B2 VH with L78V, L80F, L112S
VL: B2 VL
notes: as for B2
binding result [1]: binds

B11: BT-063-1 (hVH20/hVL7) (antibody, V domains shown)
VH: B2 VH with L78V, L80F, Y94F, R97K, L112S
VL: B2 VL
notes: also called BT-063 variant hVH20/hVL7
Kd [4]: 1220 pM
koff [4]: 0.00103 s⁻¹
kon [4]: 1.21e+06 M⁻¹ s⁻¹

Next, values leading:

binding result [1]: binds
B1: humanized antibody variant hVH13/hVL8 (antibody, V domains shown)
VH: B2 VH with S28T, A30S, S40A, L48V, G49S, L67F, K71R, L78V, L80F
VL: B2 VL with V3L, Y41F, L42Q, Q105G
notes: as for B2

binding result [1]: binds
B3: humanized antibody variant hVH9/hVL7 (antibody, V domains shown)
VH: B2 VH with S28T, A30S, S40A, L48V, G49S, L67F, K71R, Y94F, R97K
VL: B2 VL
notes: as for B2

binding result [1]: binds
B8: humanized antibody variant hVH18/hVL8 (antibody, V domains shown)
VH: B2 VH
VL: B2 VL with V3L, Y41F, L42Q, Q105G
notes: as for B2

binding result [1]: binds
B9: humanized antibody variant hVH26/hVL8 (antibody, V domains shown)
VH: B2 VH with L78V, Y94F, R97K, L112S
VL: B2 VL with V3L, Y41F, L42Q, Q105G
notes: as for B2

binding result [1]: binds
B10: humanized antibody variant hVH28/hVL8 (antibody, V domains shown)
VH: B2 VH with L78V, L80F, L112S
VL: B2 VL with V3L, Y41F, L42Q, Q105G
notes: as for B2

binding result [1]: binds
B12: humanized antibody variant hVH13/hVL7 (antibody, V domains shown)
VH: B2 VH with S28T, A30S, S40A, L48V, G49S, L67F, K71R, L78V, L80F
VL: B2 VL
notes: as for B2

factor of reduced affinity compared to the murine B-N10 [2]: ~3 fold
Kd [5]: 2910 pM
koff [5]: 0.00266 s⁻¹
kon [5]: 1.07e+06 M⁻¹ s⁻¹
Kd [6]: 196 pM
koff [6]: 0.012 s⁻¹
kon [6]: 6.2e+07 M⁻¹ s⁻¹
Kd [7]: 195 pM
koff [7]: 0.017 s⁻¹
kon [7]: 8.6e+07 M⁻¹ s⁻¹
Kd [8]: 191 pM
koff [8]: 0.018 s⁻¹
kon [8]: 9.7e+07 M⁻¹ s⁻¹
Kd [9]: 4600 pM
koff [9]: 0.003 s⁻¹
kon [9]: 600000 M⁻¹ s⁻¹
Kd [10]: 194 pM
B13: BT-063-3 (hVH26/hVL7) (antibody, V domains shown)
VH: B2 VH with L78V, Y94F, R97K, L112S
VL: B2 VL
notes: also called BT-63 variant 3; BT-063 (variant hVH26/hVL7)
